Measurements taken from patent US9586995B2, “Compositions and methods of use for (pro)renin receptor” (University of Utah, priority 2012, dated 2017).
Values belong to the molecule of their own block, whether it stands above or below them.

Legend:
ENaC = ENaC activity (Ieq, amiloride-sensitive current) in mpkCCD cells; format: cell-based; conditions: for acute activation of ENaC by prorenin / second (chronic) phase of prorenin-increased sodium transport / ENaC activity: prorenin 10 nM; for acute activation of ENaC by prorenin: PRO20 1.5 μM, losartan 1.0 μM, apocynin 1 mM, eplerenone 10 mg/L; for second (chronic) phase of prorenin-increased sodium transport / ENaC activity: 6 h to 24 h; for Ieq: 10 nM for 5 min, control group 1.17+0.05
Description: FIGS. 32A-H show the role of PRR in the acute regulation of ENaC activity in cultured CD cells. Confluent mpkCCD cells grown on Transwell membrane were pretreated for 30 min with PRO20 (1.5 μM), losartan (1.0 μM), apocynin (1 mM), or eplerenone (10 mg/L) and then treated with AngII (500 nM) or prorenin (10 nM). Ieq was measured by using EVOM and amiloride-sensitive Ieq was determined at the end of experiments. (A) Time course of Ieq changes in control, AngII, and AngII+PRO20 groups. (B) Amiloride-sensitive Ieq measured at 5 min for experiments in (A). (C) Time course of Ieq changes in control, prorenin, and prorenin+PRO20 groups. (D) Amiloride-sensitive Ieq measured at 5 min for experiments in (C). (E) Time course of Ieq changes in control, prorenin, and prorenin+losartan groups. (F) Amiloride-sensitive Ieq measured at 5 min for experiments in (E). (G) Amiloride-sensitive Ieq measured at 5 min in control, prorenin, and prorenin+apocynin groups. (H) Amiloride-sensitive Ieq measured at 5 min in control, prorenin, and prorenin+eplerenone groups. N=6-12 per group. Data are means±SE.
FIGS. 33A-D show the role of PRR in chronic regulation of ENaC by prorenin in cultured CD cells. (A) Time course of Ieq changes in control, prorenin, prorenin+PRO20, and prorenin+losartan groups over 24 h in mpkCCD cells. (B) Time course of changes in Ieq during 24-h aldosterone treatment in mpkCCD cells. (C) Amiloride-sensitive Ieq in mpkCCD cells after exposure for 24 h to 10 nM prorenin in presence or absence of eplerenone. (D) Medium aldosterone concentration in primary rat IMCD cells exposed for 24 h to 10 nM prorenin alone or in combination with 1.5 μM PRO20 or 1.0 μM losartan.
Electrophysiology experiments were performed on the immortalized mpkCCD cells once the cell monolayers reached confluence. The transepithelial voltage (Vte) and resistance (Rte) across cell monolayers were measured with an epithelial volt-ohmmeter (World Precision Instruments). The transepithelial current was calculated according to Ohm's law, Ite=Vte/Rte, and normalized by the surface area of the insert. AngII (500 nM) or prorenin (10 nM) was added to the apical side of the inserts, and amiloride (10 μM) was added at the end of experiments to calculate amiloride-sensitive sodium current as the difference between total current and amiloride-insensitive current.

PRR [1] = assay: ICV infusion pressor response in WT and neuron-specific PRR knockout (Nefh-PRR) mice, telemetry; format: in vivo, mouse; conditions: for ΔMAP, pressor response to ICV infusion: Nefh-PRR mice, ICV 100 ng/ul at 0.3 ul/minute for 10 minutes
Description: (§1) FIG. 6 is a series of graphs illustrating the pressor response to intracerebroventricular (ICV) infusion of carbachol (FIG. 6A), Ang II (FIG. 6B), renin (FIG. 6C), and prorenin (FIG. 6D) in wild-type (WT) and Nefh-PRR mice. WT and Nefh-PRR mice were implanted with telemetric transmitters and ICV cannula. Two weeks after recovery, mice were ICV infused (0.3 μl/min) with carbachol (100 ng/μl), Ang II (100 ng/μl), Ang II (100 ng/μl), +losartan (10 ng/μl), mouse renin (100 ng/μl), mouse prorenin (100 ng/μl), or mouse prorenin (100 ng/μl) +losartan (10 ug/μl) over 10 minutes. Blood pressure (BP) was recorded in conscious freely moving mice. *P<0.05 vs. WT.
(§2) Neuron-specific PRR knockout mice (Nefh-PRR) and wildtype (WT) littermates (N=5/group) were each implanted with a telemetric probe for blood pressure (BP) recording and an intracerebroventricular (ICV) cannula for infusion of mouse prorenin (100 ng/ul), mouse renin (100 ng/ul), or an Ang II type 1 receptor (AT1R) blocker (losartan, 10 ug/ul) at 0.3 ul/minute for 10 minutes. Mouse prorenin infusion increased the BP (mmHg) in WT mice (ΔMAP: 41±5); however, the prorenin induced pressor response was abolished in Nefh-PRR mice (ΔMAP: 5±1).

PRR [2] = molecular target: T1, PRR (Mus musculus, UniProt Q9CYN9); assay: Prorenin-induced pressor response with ICV PRR antagonist peptides in C57BI/6J mice; format: in vivo; design: from tissue; host or cells: brain of living C57Bl/6J mice (ICV infusion); conditions: ICV mouse prorenin 100 ng/ul alone or with peptide 45 ng/ul, 0.3 ul/minute for 10 minutes
T1 sequence (Q9CYN9 18-350): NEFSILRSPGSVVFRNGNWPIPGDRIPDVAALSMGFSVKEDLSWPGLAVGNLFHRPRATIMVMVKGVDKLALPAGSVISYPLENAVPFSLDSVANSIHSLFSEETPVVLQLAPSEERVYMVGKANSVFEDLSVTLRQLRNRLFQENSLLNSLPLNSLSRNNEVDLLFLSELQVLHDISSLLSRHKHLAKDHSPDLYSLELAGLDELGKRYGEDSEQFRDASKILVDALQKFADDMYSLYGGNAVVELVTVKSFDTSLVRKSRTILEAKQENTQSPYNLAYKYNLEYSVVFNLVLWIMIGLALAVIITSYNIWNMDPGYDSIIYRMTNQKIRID
Description: C57BI/6J mice (N=5/group) were each implanted with a telemetric probe for BP recording and an intracerebroventricular (ICV) cannula for infusion of mouse prorenin (100 ng/ul), PR10, or PR20 (45 ng/ul) at 0.3 ul/minute for 10 minutes. Mouse prorenin infusion increased the BP (mmHg) in WT mice (ΔMAP: 31.3±1.1); however, the prorenin-induced pressor response was abolished in either PR10 (ΔMAP: 16.9±4.4 vs. prorenin) or PR20 (ΔMAP: 12.7±0.5 vs. prorenin) infused mice.

PRR [3] = molecular target: T1, PRR; assay: ICV infusion pressor response in WT and neuron-specific PRR knockout (Nefh-PRR) mice, telemetry; format: in vivo; design: Neuron-specific PRR knockout mice (Nefh-PRR) and wildtype (WT) littermates (N=5/group) were each implanted with a telemetric probe; from tissue; host or cells: brain of living WT and Nefh-PRR mice (ICV infusion); conditions: WT mice; ICV 100 ng/ul at 0.3 ul/minute for 10 minutes
Description: as §1, §2

Molecule: COc1cc(C(C)=O)ccc1O [apocynin]
acute activation of ENaC by prorenin (ENaC): completely abolished

Molecule: COC(=O)[C@@H]1CC2=CC(=O)CC[C@]2(C)[C@@]23O[C@@H]2C[C@@]2(C)[C@@H](CC[C@@]24CCC(=O)O4)[C@H]13 [eplerenone]
second (chronic) phase of prorenin-increased sodium transport / ENaC activity (ENaC): effectively blocked
acute activation of ENaC by prorenin (ENaC): unaffected

Molecule: CCCCc1nc(Cl)c(CO)n1Cc1ccc(-c2ccccc2-c2nn[nH]n2)cc1 [losartan]
pressor response induced by prorenin or renin (PRR [1]; ICV losartan 10 ug/ul): completely blocked
second (chronic) phase of prorenin-increased sodium transport / ENaC activity (ENaC): not
acute activation of ENaC by prorenin (ENaC): not

ΔMAP, prorenin-induced pressor response (PRR [2]): 16.9±4.4 mmHg
Molecule: IFDNIISQGVLKEDVF (PRR antagonist PR10)

ΔMAP, prorenin-induced pressor response (PRR [2]): 12.7±0.5 mmHg
Molecule: LPTDTTTFKRIFLKRMPSI (PRR antagonist) [PR20]

Molecule: renin
Ieq (ENaC): 1.58+0.19 μA/cm2

B1: mouse renin: mouse renin, infused ICV (protein, UniProt P06281 72-402, looked up)
Renin-1: SPVVLTNYLNTQYYGEIGIGTPPQTFKVIFDTGSANLWVPSTKCSRLYLACGIHSLYESSDSSSYMENGSDFTIHYGSGRVKGFLSQDSVTVGGITVTQTFGEVTELPLIPFMLAKFDGVLGMGFPAQAVGGVTPVFDHILSQGVLKEEVFSVYYNRGSHLLGGEVVLGGSDPQHYQGNFHYVSISKTDSWQITMKGVSVGSSTLLCEEGCAVVVDTGSSFISAPTSSLKLIMQALGAKEKRIEEYVVNCSQVPTLPDISFDLGGRAYTLSSTDYVLQYPNRRDKLCTLALHAMDIPPPTGPVWVLGATFIRKFYTEFDRHNNRIGFALAR
ΔMAP, pressor response to ICV infusion (PRR [1]): 27±2 mmHg
ΔMAP, pressor response to ICV infusion (PRR [3]): 31±5 mmHg

ΔMAP, prorenin-induced pressor response (PRR [2]): 31.3±1.1 mmHg
B2: mouse prorenin: mouse prorenin, ligand of PRR, infused ICV (protein)
chain: LPTRTATFERIPLKKMPSVREILEERGVDMTRLSAEWGVFTKRPSLTNLTSPVVLTNYLNTQYYGEIGIGTPPQTFKVIFDTGSANLWVPSTKCSRLYLACGIHSLYESSDSSSYMENGSDFTIHYGSGRVKGFLSQDSVTVGGITVTQTFGEVTELPLIPFMLAKFDGVLGMGFPAQAVGGVTPVFDHILSQGVLKEEVFSVYYNRGSHLLGGEVVLGGSDPQHYQGNFHYVSISKTDSWQITMKGVSVGSSTLLCEEGCAVVVDTGSSFISAPTSSLKLIMQALGAKEKRIEEYVVNCSQVPTLPDISFDLGGRAYTLSSTDYVLQYPNRRDKLCTLALHAMDIPPPTGPVWVLGATFIRKFYTEFDRHNNRIGFALAR
ΔMAP, pressor response to ICV infusion (PRR [1]): 5±1 mmHg
ΔMAP, pressor response to ICV infusion (PRR [3]): 41±5 mmHg

B3: prorenin: prorenin added at 10 nM to mpkCCD cells; species not stated (protein)
chain: B2 chain
Ieq (ENaC): 3.16+0.07 μA/cm2
